The values that follow come from PMC7653511 (Journal of immunology (Baltimore, Md. : 1950), 2020).

By pIC50 is commonly meant the IC50 on a negative log10 scale, so that one unit is a factor of ten.

Series [1] concerns the target HLA-E*01:03 heavy chain with human β2-microglobulin (human). The experiment in a line: HPLC size exclusion chromatography peptide competition binding assay.
Series [2] deals with HLA-E*01:01 heavy chain with human β2-microglobulin (human). The series is described as above.
Series [3] addresses HLA-E*01:03 heavy chain with human β2-microglobulin (human). The experiment in a line: HPLC size exclusion chromatograph.
Series [4] addresses HLA-E*01:01 heavy chain with human β2-microglobulin (human). The experiment in a line: HPLC size exclusion chromatograph. A general note: Size exclusion chromatography separates by hydrodynamic size, large species first.
Another series relates to HLA-E. Conditions: no reference given; cited from earlier work.
Series [5] is described as follows: Aggregation of the proteins with norleucine fluorescent standard peptide. It is filed as physicochemical. The settings on record: norleucine vs methionine in position 2 of fluorescent standard peptide.
The target of another series is HLA-E*01:01 (Homo sapiens, UniProt P13747, G128R). Briefly: UV-mediated peptide exchange binding assay. The settings on record: s/p ratio, at least two independent experiments.
In the next series the target is HLA-E*01:03 (Homo sapiens, UniProt P13747). Briefly: UV-mediated peptide exchange binding assay. Conditions: s/p ratio, at least two independent experiments.
In the next series the test system is Mamu-E. It is filed as binding, rhesus macaques. The settings on record: s/p ratio, at least two independent experiments.
The target in a further series is Qa-1^b (Mus musculus, UniProt P06339). The experiment in a line: UV-mediated peptide exchange binding assay. The settings on record: s/p ratio, at least two independent experiments. More on the design: species or system mice.

pIC50: −log10 of the molar value.

For Qdm (peptide), the pIC50 in series [1] and in series [2] was above 4.00 in each case.

In the case of VL9 (peptide), the pIC50 in [3] and in series [4] was above 4.00 in each case.

For VLAPRTLLL [pCMV], the “Known binding to HLA-E of control peptides” value in the series on HLA-E is recorded as “high binding capacity to HLA-E”.

Consider VXAPCTLLL, for which the “Unspecific aggregation of the proteins” value in [5] is given as “reduced unspecific aggregation of the proteins”.

For the substance “pCMV P2-Ala: pCMV with Ala in position 2 (VAAPRTLLL)”, the “Effect of alanine substitution on binding” value (from here on “Effect”) with HLA-E*01:01, with HLA-E*01:03, in the series with Mamu-E and with Qa-1^b was “considerable loss of binding” each time.

“pCMV P7-Ala: pCMV with Ala in position 7 (VLAPRTALL)”: the “Effect” value with HLA-E*01:01, with HLA-E*01:03, in the series with Mamu-E and with Qa-1^b was “complete or almost complete loss of binding” throughout.

For the substance “pCMV P9-Ala: pCMV with Ala in position 9 (VLAPRTLLA)”, the “Effect” value in the series with HLA-E*01:01, with HLA-E*01:03, in the series on Mamu-E and with Qa-1^b was “complete or almost complete loss of binding” throughout.
